Measured values taken from article PMC3566775.

Biological target: Mouse SR-BI CGG mutant (positions 321-323) (mouse) (UniProt Q61009)
Assay: radioligand binding

reduction in binding compared to the WT receptor: 20%
Substance: Human high density lipoprotein (HDL), labeled with 125I (complex)
